Results reported in article PMC7033129, “Structural basis for substrate specificity and catalysis of α1,6-fucosyltransferase” (Nature Communications, 2020).

Target: the molecule itself
Test: crystal structure; C2 crystals of HsFUT8 with 5 mM GDP and 5 mM G0, 1.95 Å; two molecules in the asymmetric unit, each forming a dimer with a molecule of the neighbouring asymmetric unit

B1: human α1,6-fucosyltransferase (HsFUT8), residues 68–575 (enzyme, UniProt Q9BYC5 68-575, looked up)
chain: RIPEGPIDQGPAIGRVRVLEEQLVKAKEQIENYKKQTRNGLGKDHEILRRRIENGAKELWFFLQSELKKLKNLEGNELQRHADEFLLDLGHHERSIMTDLYYLSQTDGAGDWREKEAKDLTELVQRRITYLQNPKDCSKAKKLVCNINKGCGYGCQLHHVVYCFMIAYGTQRTLILESQNWRYATGGWETVFRPVSETCTDRSGISTGHWSGEVKDKNVQVVELPIVDSLHPRPPYLPLAVPEDLADRLVRVHGDPAVWWVSQFVKYLIRPQPWLEKEIEEATKKLGFKHPVIGVHVRRTDKVGTEAAFHPIEEYMVHVEEHFQLLARRMQVDKKRVYLATDDPSLLKEAKTKYPNYEFISDNSISWSAGLHNRYTENSLRGVILDIHFLSQADFLVCTFSSQVCRVAYEIMQTLHPDASANFHSLDDIYYFGGQNAHNQIAIYAHQPRTADEIPMEPGDIIGVAGNHWDGYSKGVNRKLGRTGLYPSYKVREKIETVKYPTYPEAEK
notes: α1,6-fucosyltransferase (FUT8), human, amino acid residues 68–575 (coiled-coil, catalytic and SH3 domains); Expressed from pHLSec-12His-GFP-TEV-HsFUT8 after the vector's secretion signal; His-GFP cut off with TEV protease before crystallisation; Crystallised with GDP and the N-glycan G0; source: HEK293F, transfected, secreted into the supernatant, purified (His-Trap, TEV cleavage, second …)
  binding result: binds
